Experimental data: the DeepSol protein solubility set

Experiment: soluble on expression in E. coli; label from the status in PepcDB or PDB records
In the case of “MTRSEKTRHFGNQNYEKLRKICIKKKQPFVDTLFPPTNQSLFLEQRQSSDIVWKRPGELHPDPHLFVEGASPNDVTQGILGNCWFVSACSALTHNFKLLAQVIPDADDQEWSTKHAYAGIFRFRFWRFGKWVEVVIDDLLPTRDGKLLFARSKTPNEFWSALLEKAFAKLYGCYENLVGGHLSDALQDVSGGVAETLHVRKFLKDDPNDTELKLFNDLKTAFDKGALVVAAIAARTKEEIEESLDCGLVKGHAYAVSAVCTIDVTNPNERSFTSFIMGSKRKQNLIRLQNPWGEKEWNGAWSDDSPEWQNVSASQLSTMGVQPANSDSDDGDFWMPWESFVHYFTDISLCQLFNTSVFSFSRSYDEQIVFSEWTTNGKKSGAPDDRAGGCHNFKATFCNNPQYIFDIPSPNCSVMFALIQNDPSEGLKKREPFVTIGMHVMKVENNRQYRVHTAMHPIAISDYASGRSVYLHLQSLPRGRYLLIPTTFAPKEQTLFMLRVYSDEHIHFSPLTKHAPKLGLLKCKSAQSVTRLTIHGVDFNSASTGTHNVYAILKDSRKSFRTKTLSGVKSIQWDEQFLFHKSKNRQQYKIEVWEDRKMARDHLLAQSVIIALIDNENRDTTLQLTDPRGTVIGTVSVTVSAFDDPMYL”, the “soluble on expression in E. coli” value is reported as “not soluble”. In the case of “MAHHHHHHMSISVRIRTPKSSTPEQVELNSSGTWGEAAVLLSRKSEVALERLRVLAGFPPKAVDLAADSPLSALKLRANDMLIVQEGEAKVQLGNTGERYVPPAPERAHLTRRRCPADNSCLFHACAYVLRDKSRTEGPQLRQECVQAVLDHPEMFNVNTLGMDPLAYASWLSQKDTWGGAIELEILSFLYKTEMFALDLQSVTVQRFGTGLGYTVRAFLVYTGNHYDCIAMNPVYNSASEREDQTLFSSRDENVLVRAKRFVAEEGQKMKEGKAT”, the “soluble on expression in E. coli” value is reported as “soluble”. For “SWMANQFFLLEEYTGSDYQYVGKLHSDQDRGDGSLKYILSGDGAGDLFIINENTGDIQATKRLDREEKPVYILRAQAVNRRTGRPVEPESEFIIKIHDINDNEPIFTKDVYTATVPEMADVGTFVVQVTATDADDPTYGNSAKVVYSILQGQPYFSVESETGIIKTALLNMDRENREQYQVVIQAKDMGGQMGGLSGTTTVNITLTD”, the “soluble on expression in E. coli” value was “soluble”. In the case of “MGSDKIHHHHHHMEGYLNSRLVRNAARVALVVAIPATLAGCGINTIPTQDEATKTAWAEVQNQYQRRADLIPNLVATVKGYAAQEKDVLTAVTEARASATQVKVDASTITDPAQFQKFAAAQDQLSGVLGRLMVIQEQYPDLKSNQNFLALQSQLEGTENRITIARRDYNETAQKYNTTLRTFPSLLWAKTLYSDQKPAQLFQASAAAQSAPTVDFSSPPTATPPKVQ”, the “soluble on expression in E. coli” value is reported as “not soluble”. With “MKIAFLFRTSPHGTSISREGLDAILAATAFCEPNDIGIFFIDDGVLNLIDNQQPEIIQQKDFIRTFKLLDLYDVEQRFICTASLQKFKLDNRELILSCEKIDRSLLLEKLNQAGKLFTF” the “soluble on expression in E. coli” value was “not soluble”. For “GPGSMLKCSLCYLASKVTAGNAKNQAGHPRRRAKLFHVVPGTPVTPFEKLKEQRRRFGQDRHSRLPEYRPGNNVRMDPNTYTLYATKKGVMTIRESRINPKYKWLDVEPDIQKVYRSRELRRALQEREMASMAVGENSNYRVELDLLLEPDWRERVMHVPKATERFKDPNLFTRGVVNELSPLDRYSYT”, the “soluble on expression in E. coli” value was “not soluble”. For “MSEVTNELMKTIGGLAKNPNFYLMMGPHHRGQRGHHRGQARLMHLLEKYDGLSVGEIAEILDVRPSSVTSLVDKLEENDFVERIVDEIDKRITLIKLTKKGHAFLKNKKDEADDLSEEIFARLSEEEKDTLLRLLKRVSENLNDVDFGDYISKMVNDSIGRHFKFDDGDIHINI”, the “soluble on expression in E. coli” value was “not soluble”. For “MVEIVGHRAFKARYPENTLLAFEKAYAAGADVIETDLQMTSDGMVVVNHDSDTGRMWDKNLVIGESTWEEVKRLRCKEDGSLAMMTLKEILTWAVCHPGAKLMLDIKFTNEKIIMIKTFVIMLEVKNDLKFWQERITWGLWLLDWYDFGIETGVLKDFKVIVISLSLDIASQFVKRSLTLNDPHYKLFGISVHFVSSWTSQFRLRLLPVLMKNDIKVYLWTVNKPIDFKYLCELPIHGAITDDPIKARKLCDGHTVAKKPTAEKKFVAPSLASVDGLRFHAFIKVYNILCTLLYSKWVHIKLCGWSIAYVIFLFLRTIHFL”, the “soluble on expression in E. coli” value was “soluble”. In the case of “MGSDKIHHHHHHVRCLNEEIARKANREDECKGAFWEGRFKSQALLDEQALLACMMYVDLNPIRAGIADSLQSSDFTSIQERISALKQVNNTIISPQAPVQSAKNKPQTINKSLAKFDAATHSSQQTGIPFHFADYLELIDWTGRTIRHDKKGFIDNQRPKLLNELGIASDAWLSSAKDFRRQYSGISGRWDAMCAFKLQQGGKWCRGKSSCEALHPNQPLG”, the “soluble on expression in E. coli” value is reported as “not soluble”. For “MRGHHHHHHHGSMTIEFVGVEKIYPGGARSVRGVSFQIREGEMVGLLGPSGSGKTTILRLIAGLERPTKGDVWIGGKRVTDLPPQKRNVGLVFQNYALFQHMTVYDNVSFGLREKRVPKDEMDARVRELLRFMRLESYANRFPHELSGGQQQRVALARALAPRPQVLLFDEPFAAIDTQIRRELRTFVRQVHDEMGVTSVFVTHDQEEALEVADRVLVLHEGNVEQFGTPEEVYEKPGTLFVASFIGESNVWTRAVQNGRIEVAGAALPVDPAVSEGSEVAVVVRPKDVELQPASEREAHAQVVRSAFKGSYSACWIRTKDGEVWEVHVPSADRHRWSPGAWVHMNVTRWFIFPR”, the “soluble on expression in E. coli” value was “soluble”. For “MGSDKIHHHHHHMRLNPERPLLSGSCTQYLDWGLPIAMDAVGPGEARRILDRYGADRVLLVGPPGVGKSTVVRSYAEDSASREGLEFVDLSEARSLEDLDTDSTYAFLHIYAPLVRAEDLAFIARRGEGYDWTLPSRLAYLTRPGVRGLVFIDEITNVALPEVQTILFSMVLDKRVAYNRLSSGVEVVAAGNSPRDSPVSQWPPPPLLDRFRLLIRVKPPDLEEWVSWMNSVGRPWDRRVAAVLKVKPVLMYRPPEDEEDKFPTPRSWSQLAWELAKTGAHGDEAVRIAAMVVGRRAAEEARQFLQPDPASLDLSTFPRLDERERLTLLSVEAGRLASQDVVELCRTLEKVGSYGAHYAVWLLMLSGVDTVEAARSCSYVEDLLSRLSSYLG”, the “soluble on expression in E. coli” value was “not soluble”. With “QGMIMTSDIKLLDYLRVRRSTPALQLSEPGPSKGEIEEILRLAVRVPDHGKLAPWRFVVYRGEERVRLSEAALRIALEKNPDLDLQQQEAERTRFTRAPVVIAVISTAKPHFKIPEWEQVMSAGAVCLNVIFAANASGFAANWLTEWLAFDPAFLAEIGVSAEEKVAGYIHIGSTTFPPVERPRPELADVVTWVGDV” the “soluble on expression in E. coli” value was “soluble”. For “MDNPTTPIAVVGPTASGKSALGVSLAHHLNGEVVNVDSMQLYKGMDIGTAKLTLEEREGIVHHLLDVWDISETASVARYQSQAIAVVEDIQRRGKTPILVGGSMLYVQSLVDDWQFPPTDPSVRAKWESKLNEVGVEALHALLAQKDPQAASIIELKDPRRTVRALEVIELTGKPFNASQPPKNAPPRWNTQIIGLGTNTEWLNPRIDLRTELMFEKGFVHEVENLVGKGLIADSTAGHAIGYAQVLQHFAGELSVDEMIEHTKIGTRRYVRRQRSWFKRDPRIHWIDASGDTFSMALSLLS”, the “soluble on expression in E. coli” value was “not soluble”. With “APVISQISKDVVASVGDSVEFNCTVEEVGQLSVSWAKRPSESDTNSVVLSMRNILSLPDQRYNVTVTEGPKTGSAIYTFRIQNIEVSDMGPYECQVLVSATEKVTKKLSLQIKTPPVIAENTPKSTLVTEGQNLELTCHANGFPKPTISWAREHNAVMPAGGHLLAEPTLRIRSVHRMDRGGYYCIAQNGEGQPDKRLIRVEVEFRPQIAVQRPKIAQMVSHSAELECSVQGYPAPTVVWHKNGVPLQSSRHHEVANTASSSGTTTSVLRIDSVGEEDFGDYYCNATNKLGHADARLHLFQTVIPVPSLS” the “soluble on expression in E. coli” value was “soluble”. In the case of “GMIPIVDSRIGAYLDGLLPEADPVVAAMEQIARERNIPIVDRQTGRLLYLLARIKQPQLVVVPGDGLGCASWWFARAISISSRVVMIDPDRDNVEHARRMLHDNGLIDRVELQVGDPLGIAAGQRDIDILFMDCDVFNGADVLERMNRCLAKNALLIAVNALRRGSVAESHEDPETAALREFNHHLSRRRDFFTTIVPVGNGVLLGYRLS”, the “soluble on expression in E. coli” value is reported as “soluble”. In the case of “MSISDTVKRAREAFNSGKTRSLQFRIQQLEALQRMINENLKSISGALASDLGKNEWTSYYEEVAHVLEELDTTIKELPDWAEDEPVAKTRQTQQDDLYIHSEPLGVVLVIGAWNYPFNLTIQPMVGAVAAGNAVILKPSEVSGHMADLLATLIPQYMDQNLYLVVKGGVPETTELLKERFDHIMYTGSTAVGKIVMAAAAKHLTPVTLELGGKSPCYVDKDCDLDVACRRIAWGKFMNSGQTCVAPDYILCDPSIQNQIVEKLKKSLKDFYGEDAKQSRDYGRIINDRHFQRVKGLIDNQKVAHGGTWDQSSRYIAPTILVDVDPQSPVMQEEIFGPVMPIVCVRSLEEAIQFINQREKPLALYVFSNNEKVIKKMIAETSSGGVTANDVIVHITVPTLPFGGVGNSGMGAYHGKKSFETFSHRRSCLVKSLLNEEAHKARYPPSPAKMPRH”, the “soluble on expression in E. coli” value is reported as “soluble”. With “MGSSHHHHHHSQDPMLSKDIIKLLNEQVNKEMNSSNLYMSMSSWCYTHSLDGAGLFLFDHAAEEYEHAKKLIIFLNENNVPVQLTSISAPEHKFEGLTQIFQKAYEHEQHISESINNIVDHAIKSKDHATFNFLQWYVAEQHEEEVLFKDILDKIELIGNENHGLYLADQYVKGIAKSRKS” the “soluble on expression in E. coli” value was “soluble”. For “MAHHHHHHMSENLDRYDAYRLFCISAAAVNGDEDELQDRLGIVEEYLTEYEGLCRAFHKAQRTTHAQEIRRLLADEAEERRFLKEDADSLPWKLFINMSFACAQELVVEHERKMRQGIVAAYTASFTELLFPYETLQRMRLTWEALDSLALKACIVGRYGVREGQLARTSIPGYTAGSTFPPSARAAAAADAVRSLLAEEHQERQEMIEARGQHVAAALLILASSEKFRSFASASVCGMGFLPQLRNNLASTARQALDNSATRIQSAYRGYRVRAVRARS”, the “soluble on expression in E. coli” value was “not soluble”. With “MLGASRWRRTSAFSGIWRIPMSSNNSSRKVVTVDEQAFERTEDAGVDEDGFKVVDDKPEFRATVQQEKQAKVDSNHPDGIVQDFSHLPLAQEEKIRAREAELDHISAQAELGTQDGRAKRTRKVVTERRQRKRAERTPDRTDPRERLSRMELAKVNQEADRMAQRLRTGHSRAAVSRALAKRVAKGQDITKAVFDTMDALKAAPGAICPIEDVPDVQTDEVSIEGEVVQLWDASSRKIAQVGLVADDTGKIKFTSWRKSEPAFVQEGDTVRMRAVKKNWYEGRCSLAVTYDSMIVFPERDRRWWEELEHHHHHH” the “soluble on expression in E. coli” value was “not soluble”. With “MKFTWIALPGVLLLSACSSSQPNAPRPPRIGMPNPAAVYCEQQGGTLMPVQTPQGVRSDCKLPNGEIIDEWTLWRREHPDTKK” the “soluble on expression in E. coli” value was “not soluble”. For “GQYDYIKVAVSLMGSAYYVDFAKELSKYALAQGLTFPYDVDERILALQKYDLTQNITKINNRPLLLWHGKKDDVVPFAYSEKLYQTLVEESLADNVEFIIDDNAKHKVSVEGMLQGVSFFEKFL”, the “soluble on expression in E. coli” value was “not soluble”. In the case of “SKKVIGKKRAHAEDDELDPMDPSSYSDAPRGGWVVGLKGVQPRAADTTASGPLFQQRPYPSPGAVLRRNAEVASSQKKKPNSQFTEITKRGDGSDGLGDAD”, the “soluble on expression in E. coli” value is reported as “soluble”.
